Assay results: paper PMC8319299, “PALI1 facilitates DNA and nucleosome binding by PRC2 and triggers an allosteric activation of catalysis”

Assays:
[1] = target: PRC2 core (EZH2-EED-SUZ12-RBBP4) (Homo sapiens, UniProt Q15910-2;O75530;Q15022;Q09028 1-751;1-441;1-739;1-425); assay: fluorescence anisotropy; 50 mM Tris-HCl pH 7.5 (25 C), 100 mM KCl, 2 mM 2-mercaptoethanol, 0.1 mg/mL BSA, 0.05% NP-40; FA at 30 C; nucleosome EMSA with 5% glycerol at 4 C (+5 ng/uL salmon sperm DNA for H2A-Cy5 probes); PALI1 PIR EMSA with 5% glycerol, binding at 30 C; probe 5 nM; conditions: protein: recombinant; tags: His6-MBP (PreScission-cleavable); copies: 1;1;1;1; label: 3'-fluorescein; G4
PRC2 core (EZH2-EED-SUZ12-RBBP4), sequence (Q15910 other isoform, or with tags, fused parts or gaps, chain 1 of 4): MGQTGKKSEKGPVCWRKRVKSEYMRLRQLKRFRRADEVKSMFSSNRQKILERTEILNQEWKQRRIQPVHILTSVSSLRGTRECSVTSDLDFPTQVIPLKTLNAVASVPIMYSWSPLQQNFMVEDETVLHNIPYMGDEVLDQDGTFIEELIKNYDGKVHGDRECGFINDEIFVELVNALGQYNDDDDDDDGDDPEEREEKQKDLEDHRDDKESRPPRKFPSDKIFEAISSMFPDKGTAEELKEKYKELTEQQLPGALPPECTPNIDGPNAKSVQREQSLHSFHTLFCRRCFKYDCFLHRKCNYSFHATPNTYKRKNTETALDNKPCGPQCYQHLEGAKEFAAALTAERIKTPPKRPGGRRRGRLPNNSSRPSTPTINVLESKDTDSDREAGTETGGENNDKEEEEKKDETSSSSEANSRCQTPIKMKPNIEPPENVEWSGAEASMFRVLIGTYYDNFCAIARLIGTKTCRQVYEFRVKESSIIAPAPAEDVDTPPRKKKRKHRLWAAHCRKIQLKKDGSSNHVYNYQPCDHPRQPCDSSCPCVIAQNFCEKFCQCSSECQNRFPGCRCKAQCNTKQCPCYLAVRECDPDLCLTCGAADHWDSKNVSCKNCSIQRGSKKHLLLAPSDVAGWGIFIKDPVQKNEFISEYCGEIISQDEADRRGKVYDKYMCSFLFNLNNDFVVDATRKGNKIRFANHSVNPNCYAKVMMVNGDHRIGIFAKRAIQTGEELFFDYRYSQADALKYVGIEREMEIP
PRC2 core (EZH2-EED-SUZ12-RBBP4), sequence (O75530 whole entry, chain 2 of 4): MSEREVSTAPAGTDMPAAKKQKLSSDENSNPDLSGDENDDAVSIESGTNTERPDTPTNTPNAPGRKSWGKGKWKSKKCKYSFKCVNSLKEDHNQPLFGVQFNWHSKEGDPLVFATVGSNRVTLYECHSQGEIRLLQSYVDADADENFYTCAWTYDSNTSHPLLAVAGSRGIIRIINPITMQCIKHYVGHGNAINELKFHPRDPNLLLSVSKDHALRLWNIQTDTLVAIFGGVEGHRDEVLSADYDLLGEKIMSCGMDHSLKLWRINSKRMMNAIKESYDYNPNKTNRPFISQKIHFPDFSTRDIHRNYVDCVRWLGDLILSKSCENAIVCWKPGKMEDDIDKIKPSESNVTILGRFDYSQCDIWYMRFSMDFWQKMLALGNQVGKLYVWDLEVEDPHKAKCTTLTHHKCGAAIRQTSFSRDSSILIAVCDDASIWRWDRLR
PRC2 core (EZH2-EED-SUZ12-RBBP4), sequence (Q15022 whole entry, chain 3 of 4): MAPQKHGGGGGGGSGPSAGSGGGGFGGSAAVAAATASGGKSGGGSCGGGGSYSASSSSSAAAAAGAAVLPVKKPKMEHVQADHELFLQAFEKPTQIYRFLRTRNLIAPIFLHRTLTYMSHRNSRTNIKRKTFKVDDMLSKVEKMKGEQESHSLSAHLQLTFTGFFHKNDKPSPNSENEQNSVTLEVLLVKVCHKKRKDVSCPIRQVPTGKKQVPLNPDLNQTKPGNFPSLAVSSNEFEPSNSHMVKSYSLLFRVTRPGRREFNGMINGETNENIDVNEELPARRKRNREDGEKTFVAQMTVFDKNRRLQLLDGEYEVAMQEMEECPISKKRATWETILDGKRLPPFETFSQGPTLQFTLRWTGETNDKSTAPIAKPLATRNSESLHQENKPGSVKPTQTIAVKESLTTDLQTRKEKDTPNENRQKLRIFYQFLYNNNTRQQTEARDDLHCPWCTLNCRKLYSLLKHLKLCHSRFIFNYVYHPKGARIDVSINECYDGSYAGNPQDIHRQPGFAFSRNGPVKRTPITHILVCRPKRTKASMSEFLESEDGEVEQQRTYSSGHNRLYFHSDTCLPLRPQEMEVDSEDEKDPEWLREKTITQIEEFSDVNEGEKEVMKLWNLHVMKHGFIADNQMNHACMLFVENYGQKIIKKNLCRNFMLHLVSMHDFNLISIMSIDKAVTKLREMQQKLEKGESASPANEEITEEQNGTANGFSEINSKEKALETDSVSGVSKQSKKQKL
PRC2 core (EZH2-EED-SUZ12-RBBP4), sequence (Q09028 whole entry, chain 4 of 4): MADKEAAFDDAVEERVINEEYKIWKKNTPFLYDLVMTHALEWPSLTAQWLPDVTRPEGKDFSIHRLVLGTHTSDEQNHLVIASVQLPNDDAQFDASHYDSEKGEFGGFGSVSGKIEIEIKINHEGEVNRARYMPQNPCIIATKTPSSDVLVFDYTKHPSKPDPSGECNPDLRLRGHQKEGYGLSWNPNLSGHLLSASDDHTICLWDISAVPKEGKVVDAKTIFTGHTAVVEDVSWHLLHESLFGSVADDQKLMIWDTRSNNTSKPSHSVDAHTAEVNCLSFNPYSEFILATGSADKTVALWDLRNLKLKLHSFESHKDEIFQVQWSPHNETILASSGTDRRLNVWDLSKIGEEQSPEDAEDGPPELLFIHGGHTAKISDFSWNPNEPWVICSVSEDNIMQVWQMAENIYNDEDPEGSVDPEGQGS

PRC2-PALI1 PIR = PRC2-PALI1 PIR (Homo sapiens, UniProt Q15910-2;O75530;Q15022;Q09028;Q96JN0-3 1-751;1-441;1-739;1-425;1058-1250); assay: as above; conditions: protein: recombinant, tags: His6-MBP (PreScission-cleavable), copies: 1;1;1;1;1, label: 3'-fluorescein; for Kd: hairpin, 46 bp stem
PRC2-PALI1 PIR, sequence (Q15910 other isoform, or with tags, fused parts or gaps, chain 1 of 4): as the sequence (Q15910 other isoform, or with tags, fused parts or gaps, chain 1 of 4) above
PRC2-PALI1 PIR, sequence (O75530 whole entry, chain 2 of 4): as the sequence (O75530 whole entry, chain 2 of 4) above
PRC2-PALI1 PIR, sequence (Q15022 whole entry, chain 3 of 4): as the sequence (Q15022 whole entry, chain 3 of 4) above
PRC2-PALI1 PIR, sequence (Q09028 whole entry, chain 4 of 4): as the sequence (Q09028 whole entry, chain 4 of 4) above

PALI1 PIR = target: T1, PALI1 PIR (Homo sapiens, UniProt Q96JN0-3 1058-1250); assay: EMSA; 50 mM Tris-HCl pH 7.5 (25 C), 100 mM KCl, 2 mM 2-mercaptoethanol, 0.1 mg/mL BSA, 0.05% NP-40; FA at 30 C; nucleosome EMSA with 5% glycerol at 4 C (+5 ng/uL salmon sperm DNA for H2A-Cy5 probes); PALI1 PIR EMSA with 5% glycerol, binding at 30 C; probe 5 nM; conditions: protein: recombinant; tags: MBP removed by TEV; label: 3'-fluorescein; hairpin, 46 bp stem
T1 sequence: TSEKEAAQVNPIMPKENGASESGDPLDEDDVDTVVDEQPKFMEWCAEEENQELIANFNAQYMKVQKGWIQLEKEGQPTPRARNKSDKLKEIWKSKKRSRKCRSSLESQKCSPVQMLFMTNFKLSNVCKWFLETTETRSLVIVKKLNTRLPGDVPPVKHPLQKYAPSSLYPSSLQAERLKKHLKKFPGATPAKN

UUAGGGUUAGGGUUAGGGUUAGGG (structured_RNA) [G4 24 RNA]: binds [1]; binds (PRC2-PALI1 PIR; G4).

B1: CpG46 mt (structured_DNA)
DNA: AATATTTCATTTTATTCTATCTCAATGAGACAAAAGATTGATTAATGCTAATTAATCAATCTTTTGTCTCATTGAGATAGAATAAAATGAAATATT
Work on B1 yielded a Kd (PRC2-PALI1 PIR) of 73.7 ± 10 nM.

B2: CpG46 (structured_DNA)
DNA: GGCGCCCTGCCCCGCCTCGCTCTGGCAGAGTGGGGAGCCAGCCGGCGCTAGCCGGCTGGCTCCCCACTCTGCCAGAGCGAGGCGGGGCAGGGCGCC
Work on B2 yielded a Kd (PALI1 PIR) of 2300 ± 300 nM and a Kd (PRC2-PALI1 PIR) of 155 ± 26 nM.
